Changes are numbered by the printed parent chain. Names and notes keep the numbering of the source. Each block holds one binder with its values, some of them ahead of it.
Target: T1, CD3 epsilon homodimer protein (UniProt P07766 23-126)
T1 construct: immobilized on Sensor chip CM4 by amine coupling; also called CD3 (CD3 epsilon)
Assay: SPR (Biacore T200), CD3 epsilon homodimer on CM4 chip, one-arm antibody as analyte, 25 C;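 note: homodimer attached to the sensor surface via amine coupling, HBS-EP+ used as running buffer during binding runs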

T1 sequence (P07766 23-126): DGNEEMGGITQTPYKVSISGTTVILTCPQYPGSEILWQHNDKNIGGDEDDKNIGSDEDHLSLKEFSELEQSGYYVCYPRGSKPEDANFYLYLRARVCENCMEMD

B2: CE115HA000 N31R one-arm antibody (antibody, human IgG1, kappa, L234A L235A, N297A, name in Kabat numbering)
heavy: QVQLVESGGGVVQPGRSLRLSCAASGFTFSRAWMHWVRQAPGKGLEWVAQIKAKSNNYATYYAESVKGRFTISRDDSKNSLYLQMNSLKTEDTAVYYCRYVHYGAYYGVDAWGQGTTVTVSSASTKGPSVFPLAPSSKSTSGGTAALGCLVKDYFPEPVTVSWNSGALTSGVHTFPAVLQSSGLYSLSSVVTVPSSSLGTQTYICNVNHKPSNTKVDKKVEPKSCDKTHTCPPCPAPEAAGGPSVFLFPPKPKDTLMISRTPEVTCVVVDVSHEDPEVKFNWYVDGVEVHNAKTKPREEQYASTYRVVSVLTVLHQDWLNGKEYKCKVSNKALPAPIEKTISKAKGQPREPQVYTLPPSRCELTKNQVSLSCAVKGFYPSDIAVEWESNGQPENNYKTTPPVLDSDGSFFLVSKLTVDKSRWQQGNVFSCSVMHEALHNHYTQKSLSLSPDYKDDDDK
chain: EPKSSDKTHTCPPCPAPELLGGPSVFLFPPKPKDTLMISRTPEVTCVVVDVSHEDPEVKFNWYVDGVEVHNAKTKPREEQYNSTYRVVSVLTVLHQDWLNGKEYKCKVSNKALPAPIEKTISKAKGQPREPQVCTLPPSRDELTKNQVSLWCLVKGFYPSDIAVEWESNGQPENNYKTTPPVLDSDGSFFLYSKLTVDKSRWQQGNVFSCSVMHEALHNRYTQKSLSLSP
light: DIVMTQSPLSLPVTPGEPASISCRSSQSLVHSNRNTYLHWYQQKPGQAPRLLIYKVSNRFSGVPDRFSGSGSGTDFTLKISRVEAEDVGVYYCGQGTQVPYTFGQGTKLEIKRTVAAPSVFIFPPSDEQLKSGTASVVCLLNNFYPREAKVQWKVDNALQSGNSQESVTEQDSKDSTYSLSSTLTLSKADYEKHKVYACEVTHQGLSSPVTKSFNRGEC
ratio of amounts bound (altered form / CE115HA000): 1.14

B3: CE115HA000 K64A one-arm antibody (antibody, human IgG1, kappa, L234A L235A, N297A, name in Kabat numbering)
heavy: B2 heavy with R31N, K67A
chain: B2 chain
light: B2 light
ratio of amounts bound (altered form / CE115HA000): 0.82

B4: CE115HA000 N31A one-arm antibody (antibody, human IgG1, kappa, L234A L235A, N297A, name in Kabat numbering)
heavy: B2 heavy with R31A
chain: B2 chain
light: B2 light
notes: one-arm antibody: altered VH on pE22Hh, Fc-only chain Kn010G3, GLS3000 on kappa; the same build holds for m3 to m260
ratio of amounts bound (altered form / CE115HA000): 0.5

B5: CE115HA000 K52bR one-arm antibody (antibody, human IgG1, kappa, L234A L235A, N297A, name in Kabat numbering)
heavy: B2 heavy with R31N, K54R
chain: B2 chain
light: B2 light
ratio of amounts bound (altered form / CE115HA000): 1.11

B6: CE115HA000 K52bS one-arm antibody (antibody, human IgG1, kappa, L234A L235A, N297A, name in Kabat numbering)
heavy: B2 heavy with R31N, K54S
chain: B2 chain
light: B2 light
ratio of amounts bound (altered form / CE115HA000): 0.68

B10: CE115HA000 K64E one-arm antibody (antibody, human IgG1, kappa, L234A L235A, N297A, name in Kabat numbering)
heavy: B2 heavy with R31N, K67E
chain: B2 chain
light: B2 light
ratio of amounts bound (altered form / CE115HA000): 0.74

B11: CE115HA000 N31I one-arm antibody (antibody, human IgG1, kappa, L234A L235A, N297A, name in Kabat numbering)
heavy: B2 heavy with R31I
chain: B2 chain
light: B2 light
ratio of amounts bound (altered form / CE115HA000): 0.81

B14: CE115HA000 N31G one-arm antibody (antibody, human IgG1, kappa, L234A L235A, N297A, name in Kabat numbering)
heavy: B2 heavy with R31G
chain: B2 chain
light: B2 light
ratio of amounts bound (altered form / CE115HA000): 0.39

B16: CE115HA000 K64Q one-arm antibody (antibody, human IgG1, kappa, L234A L235A, N297A, name in Kabat numbering)
heavy: B2 heavy with R31N, K67Q
chain: B2 chain
light: B2 light
ratio of amounts bound (altered form / CE115HA000): 0.89

B17: CE115HA000 L78I one-arm antibody (antibody, human IgG1, kappa, L234A L235A, N297A, name in Kabat numbering)
heavy: B2 heavy with R31N, L81I
chain: B2 chain
light: B2 light
ratio of amounts bound (altered form / CE115HA000): 1.34

B18: CE115HA000 K52bY one-arm antibody (antibody, human IgG1, kappa, L234A L235A, N297A, name in Kabat numbering)
heavy: B2 heavy with R31N, K54Y
chain: B2 chain
light: B2 light
ratio of amounts bound (altered form / CE115HA000): 0.74

B19: CE115HA000 K64S one-arm antibody (antibody, human IgG1, kappa, L234A L235A, N297A, name in Kabat numbering)
heavy: B2 heavy with R31N, K67S
chain: B2 chain
light: B2 light
ratio of amounts bound (altered form / CE115HA000): 0.84

B20: CE115HA000 N31Q one-arm antibody (antibody, human IgG1, kappa, L234A L235A, N297A, name in Kabat numbering)
heavy: B2 heavy with R31Q
chain: B2 chain
light: B2 light
ratio of amounts bound (altered form / CE115HA000): 0.49

B21: CE115HA000 N31D one-arm antibody (antibody, human IgG1, kappa, L234A L235A, N297A, name in Kabat numbering)
heavy: B2 heavy with R31D
chain: B2 chain
light: B2 light
ratio of amounts bound (altered form / CE115HA000): 0.37

B22: CE115HA000 N31S one-arm antibody (antibody, human IgG1, kappa, L234A L235A, N297A, name in Kabat numbering)
heavy: B2 heavy with R31S
chain: B2 chain
light: B2 light
ratio of amounts bound (altered form / CE115HA000): 0.81

The remaining lines, values ahead:

ratio of amounts bound (altered form / CE115HA000): 0.6
B1: CE115HA000 K52bQ one-arm antibody (antibody, human IgG1, kappa, L234A L235A, N297A, name in Kabat numbering)
heavy: B2 heavy with R31N, K54Q
chain: B2 chain
light: B2 light

ratio of amounts bound (altered form / CE115HA000): 0.68
B7: CE115HA000 N31H one-arm antibody (antibody, human IgG1, kappa, L234A L235A, N297A, name in Kabat numbering)
heavy: B2 heavy with R31H
chain: B2 chain
light: B2 light

ratio of amounts bound (altered form / CE115HA000): 0.72
B8: CE115HA000 K64D one-arm antibody (antibody, human IgG1, kappa, L234A L235A, N297A, name in Kabat numbering)
heavy: B2 heavy with R31N, K67D
chain: B2 chain
light: B2 light

ratio of amounts bound (altered form / CE115HA000): 0.62
B9: CE115HA000 N31F one-arm antibody (antibody, human IgG1, kappa, L234A L235A, N297A, name in Kabat numbering)
heavy: B2 heavy with R31F
chain: B2 chain
light: B2 light

ratio of amounts bound (altered form / CE115HA000): 0.63
B12: CE115HA000 N31W one-arm antibody (antibody, human IgG1, kappa, L234A L235A, N297A, name in Kabat numbering)
heavy: B2 heavy with R31W
chain: B2 chain
light: B2 light

ratio of amounts bound (altered form / CE115HA000): 0.84
B13: CE115HA000 K75T one-arm antibody (antibody, human IgG1, kappa, L234A L235A, N297A, name in Kabat numbering)
heavy: B2 heavy with R31N, K78T
chain: B2 chain
light: B2 light

ratio of amounts bound (altered form / CE115HA000): 1.01
B15: CE115HA000 N31K one-arm antibody (antibody, human IgG1, kappa, L234A L235A, N297A, name in Kabat numbering)
heavy: B2 heavy with R31K
chain: B2 chain
light: B2 light

ratio of amounts bound (altered form / CE115HA000): 1.01
B23: CE115HA000 K75R one-arm antibody (antibody, human IgG1, kappa, L234A L235A, N297A, name in Kabat numbering)
heavy: B2 heavy with R31N, K78R
chain: B2 chain
light: B2 light
